This note sets out measurements from paper PMC7593272.

The series deals with T1, response regulator Awo_c25920 (Reg) (Acetobacterium woodii) (UniProt H6LEQ6).
T1 sequence: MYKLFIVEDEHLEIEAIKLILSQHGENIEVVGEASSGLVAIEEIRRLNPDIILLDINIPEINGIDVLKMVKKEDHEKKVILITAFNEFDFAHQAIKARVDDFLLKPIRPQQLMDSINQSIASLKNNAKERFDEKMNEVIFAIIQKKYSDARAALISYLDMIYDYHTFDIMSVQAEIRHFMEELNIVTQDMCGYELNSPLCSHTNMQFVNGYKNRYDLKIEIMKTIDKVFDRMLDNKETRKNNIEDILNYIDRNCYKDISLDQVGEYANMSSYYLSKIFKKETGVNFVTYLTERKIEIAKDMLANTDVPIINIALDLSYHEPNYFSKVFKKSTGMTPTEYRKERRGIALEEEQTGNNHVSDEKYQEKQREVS
Put plainly: EMSA. To be noted: EMSA in 12 ul buffer B: 50 mM Tris-HCl, 125 mM NaCl, 10 mM glycerol, 5 mM MgCl2, pH 7.8, 6% native PAGE in 1X TAE at 4 C, ethidium bromide stain. Background: Mobility shift assays separate free from complexed probe on a gel.

Turning to “CATAAAACTAAAAAAATAGTCAAAAAAGCAGAACAGGAAAACCTTAGGGTTAACCTGTTCTTTTTATACGTTAGAATTAGAAATGTGATTTTAAAGTACAGGTATTAGACAAAATATTACACTATGTTTTTATGGATAGAGACAAAAAACAGCGTTAGTAAAAGGTTTTCAAGGTGGTTTTAAGAAACAAACAATAATTTTATAAGAATAGCACAAGTAATTACCATAGCCTTTGAATTAAAATATAGTTAGTTCAGTAATAAAATCTTGTAATTAAGGAGGATAGAGCTT (double strand) [291 bp intergenic region upstream of pduA]”, the binding entry was “binds”.
